T1: PTPRG-Fc (ECD of human PTPRG, aa 20-736, fused to human Fc gamma 1) (human, UniProt P23470 20-736)
T1 construct: Made in-house in Expi293 cells; Used in ELISA and SPR; also called recombinant PTPRG-Fc; PTRPG; not shown: human IgG1 Fc (Fc gamma 1) after the hinge
T1 sequence: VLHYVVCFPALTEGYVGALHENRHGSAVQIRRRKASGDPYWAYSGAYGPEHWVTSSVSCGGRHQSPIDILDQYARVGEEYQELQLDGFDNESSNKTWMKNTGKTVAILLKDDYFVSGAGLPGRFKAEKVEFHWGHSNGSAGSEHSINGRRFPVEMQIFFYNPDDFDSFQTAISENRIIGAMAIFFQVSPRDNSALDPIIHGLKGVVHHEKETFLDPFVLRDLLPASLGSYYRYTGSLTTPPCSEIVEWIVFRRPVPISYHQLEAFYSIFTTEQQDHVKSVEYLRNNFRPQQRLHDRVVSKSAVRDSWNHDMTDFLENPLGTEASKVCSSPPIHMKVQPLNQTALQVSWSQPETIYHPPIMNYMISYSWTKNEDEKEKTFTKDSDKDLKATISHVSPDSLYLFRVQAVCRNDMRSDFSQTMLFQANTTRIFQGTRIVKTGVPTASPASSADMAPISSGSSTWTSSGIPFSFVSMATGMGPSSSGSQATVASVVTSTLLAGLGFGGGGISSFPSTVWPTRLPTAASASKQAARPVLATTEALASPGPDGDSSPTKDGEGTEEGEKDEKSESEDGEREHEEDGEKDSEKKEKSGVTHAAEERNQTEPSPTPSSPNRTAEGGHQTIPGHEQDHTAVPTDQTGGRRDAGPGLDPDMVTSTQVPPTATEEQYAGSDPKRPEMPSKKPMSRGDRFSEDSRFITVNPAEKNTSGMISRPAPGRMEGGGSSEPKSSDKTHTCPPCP


Target: T1, PTPRG-Fc (ECD of human PTPRG, aa …)
Assay: SPR, Biacore X100; PTPRG-Fc captured by anti-human Fc on CM5, Fab injected; mean of triplicates (SD)
Protocol: A Biacore X100 instrument was used to determine the monovalent affinities of the C-1 cluster of Fabs for recombinant PTPRG-Fc, as previously described. […] Each experiment was repeated in triplicate. Rate constants (kₒₙ, koff, and Kd) were calculated using the Biacore evaluation software (Cytiva).

Row | Kd [nM] | koff [s⁻¹] | kon [M⁻¹ s⁻¹] | Binder
1 | 0.65 | 0.000367 | 566000 | HW-25 Fab (chimeric rabbit/human, His-tagged) (Fab, V domains shown, Monovalent Fab: rbVH-huCH1 and rbVL-huCL, His-tagged, made in E. coli from pET11a) VH: QSLEESGGRLVTPGTPLTLTCTVSGFSLSSYAMGWVRQAPGKGLEWIGIIDSRGSTYYATWAKGRFTISKTSTTVDLKITSPTTEDTATYFCAREDSYYYDSFNLWGPGTLVTVSS VL: SFVLTQPASVQVNLGQTVSLTCTADTLSRRYASWYQQKPGQAPVLLIYRDTSRPSGVPDRFSGSSSGNTATLTISGAQAGDEADYYCATSDGSGSSYQCVFGGGTQLTVT
2 | 2.54 | 0.000482 | 195000 | HW-1 Fab (chimeric rabbit/human, His-tagged) (Fab, V domains shown, Monovalent Fab: rbVH-huCH1 and rbVL-huCL, His-tagged, made in E. coli from pET11a) VH: QSLEESGGGLFKPTDTLTLTCTASGFSLGSSYAISWVRQAPGKELEWIGTIDSGRAYYARWAKSRSTITRNTNENTVTLKMTSLTAADTATYFCARDLIPTYSQDIWGPGTLVTISS VL: SFVLTQPASVQVNLGQTVSLTCTADTLSRRYASWYQQKPGQAPVLLIYRDTSRPSGVPDRFSGSSSGNTATLTISGAQAGDEADYYCATSDGSGNSYQYVFGGGTQLTVT
3 | 28.9 | 0.00429 | 149000 | HW-42 Fab (chimeric rabbit/human, His-tagged) (Fab, V domains shown, Monovalent Fab: rbVH-huCH1 and rbVL-huCL, His-tagged, made in E. coli from pET11a) VH: QSVKESEGGLFKPADTLTLTCTVSGFSLSSNEISWVRQAPGEGLEYIGIIDTGGRAYYAVWARSRSTITRNTNLNTVTLKMTSLTAADTATYFCARGGVDTEWYAFSSWGPGTLVTVPS VL: SFVLTQPASVQVNLGQTVSLTCTADTLSRRYASWYQQKPGQAPVLLIFRDTSRPSGVPDRFSGSSSGDTATLTISGAQAGDEADYYCATSDGSGSNYQYVFGGGTQLTVT
4 | 9.34 | 0.00158 | 169000 | HW-17 Fab (chimeric rabbit/human, His-tagged) (Fab, V domains shown, Monovalent Fab: rbVH-huCH1 and rbVL-huCL, His-tagged, made in E. coli from pET11a) VH: QSLGESRGRLVTPDETLTLTCTVSGIDLSSNAMSWVRQAPGEGLEWIGTINTGGRAYYASWAKGRFTISRTSTTVDLKMTSLTTEDTATYFCARERYSDGRAYDIWGPGTLVTISS VL: SFVLTQPASVQVNLGQTVSLTCTADTLSRRYASWYQQKPGQAPVLLIYTDSNRPSGIPDRFSGSSSGNTATLTISGAQAGDEADYYCATDDGSGSIYQYVFGGGTQLTVT
5 | 19.1 | 0.0153 | 826000 | HW-70 Fab (chimeric rabbit/human, His-tagged) (Fab, V domains shown, Monovalent Fab: rbVH-huCH1 and rbVL-huCL, His-tagged, made in E. coli from pET11a) VH: QSLEESGGRLVTPGTPLTLTCTVSGFSLSSNAMSWVRQAPGKGLEWIGTIDGYGYTYYASWAKGRFTVSKTSTTVDLKITSPTTEDTATYFCAREIYLGSNFWGPGTLVTISS VL: SFVLTQPASVQVNLGQTVSLTCTADTLSRRYASWYQQKPGQAPVLLIYRDTSRPSGVPDRFSGSSSGNTATLTISGAQAGDEADYYCATADGSGSSYQFVFGGGTQLTVT
